Results taken from patent publication US20240301071A1 (Alector, published 2024).

target: T1, histidine-tagged human SIRPA v1 (Novoprotein) (human, UniProt P78324 31-370, limits assumed); assay: BLI (Octet), antibody on anti-human IgG Fc sensor, His-huSIRPA in solution, single-curve 1:1 fit
T1 construct: bought, soluble; also called huSIRPA; soluble huSIRPA; not shown: histidine tag
Protocol: Initial characterization of affinity matured anti-SIRPA antibodies disclosed herein comprised acquiring antigen affinity measurements using bio-layer interferometry (BLI) on a Pall ForteBio Octet RED96 instrument. Immobilized anti-mouse IgG Fc or anti-human IgG Fc antibodies captured murine anti-SIRPA 3F79 antibody and humanized anti-SIRPA 3F79 antibody on biosensors, respectively. Single cycle kinetics were performed with 25 nM huSIRPA [which variant?] or 50 nM huSIRPB 1 flowed over captured antibody 3F79 to record traces. Data analysis was performed using ForteBio Data Analysis Software, version 9.0. Standard kinetic buffer (PBS, 0.100 BSA, 0.02% Tween-20, pH 7.2) was used for the assay and for preparing reagents. […] 50 nM of histidine-tagged human SIRPA vi or human SIRPB1 (Novoprotein, Summit, NJ, USA) were then bound to the captured anti-SIRPA antibody coated surface (200 s association time, 900 s dissociation time). […] Single-curve kinetic analysis was performed using a 1:1 interaction model to extract association and dissociation rate constants (ka and kd, respectively) for each antibody. Affinity constants (KD) were calculated from the ratio kd/ka.

T1 sequence (P78324 31-370 limits assumed): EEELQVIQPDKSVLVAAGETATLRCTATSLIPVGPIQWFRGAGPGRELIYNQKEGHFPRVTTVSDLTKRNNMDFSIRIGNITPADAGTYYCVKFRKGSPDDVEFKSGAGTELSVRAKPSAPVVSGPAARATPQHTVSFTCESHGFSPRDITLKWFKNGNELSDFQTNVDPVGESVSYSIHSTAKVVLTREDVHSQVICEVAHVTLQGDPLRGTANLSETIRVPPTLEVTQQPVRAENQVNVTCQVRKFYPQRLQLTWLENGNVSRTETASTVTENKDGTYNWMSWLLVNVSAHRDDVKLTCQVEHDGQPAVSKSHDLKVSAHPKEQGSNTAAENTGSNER

Kd [nM]	koff [s⁻¹]	kon [M⁻¹ s⁻¹]	Binder
2.09	0.000222	106000	3F9-1 (antibody, human IgG1, V domains shown, also called mAb 3F9-1) VH: EVQLLESGGGLVQPGGSLRLSCAASGFTFSSYAMSWVRQAPGKGLEWVATISEYGGSYTYYAESVKGRFTISRDNSKNTLYLQMNSLRAEDTAVYYCARPPYDDYYGGFAYWGQGTLVTVSS VL: DIQLTQSPSSLSASVGDRVTITCRASKSVSSGGYSYMHWYQQKPGKAPKLLIYLASNLESGVPSRFSGSGSGTDFTLTISSVQPEDFATYYCQHNRELPSTFGQGTKLEIK
2.06	0.000222	108000	3F9-2 (antibody, human IgG1, V domains shown, also called mAb 3F9-2) VH: EVQLLESGGGLVQPGGSLRLSCAASGFTFSSYAMSWVRQAPGKGLEWVATISEYGGSYTYYAESVKGRFTISRDNSKNTLYLQMNSLRAEDTAVYYCARPPYDDYYGGFAYWGQGTLVTVSS VL: DIQLTQSPSSLSASVGDRVTITCRASKSVSSGGYSYMHWYQQKPGKAPKLLIYLASNLESGVPSRFSGSGSGTDFTLTISSVQPEDFATYYCQHNRELPCTFGQGTKLEIK
1.79	0.000203	113000	3F9-4 (antibody, human IgG1, V domains shown, also called mAb 3F9-4) VH: EVQLLESGGGLVQPGGSLRLSCAASGFTFSSYAMSWVRQAPGKGLEWVATISEYGGSYTYYAESVKGRFTISRDNSKNTLYLQMNSLRAEDTAVYYCARPPYDDYYGGFAYWGQGTLVTVSS VL: DIQLTQSPSSLSASVGDRVTITCRASKSVSSGGYSYMHWYQQKPGKAPKLLIYLASNLESGVPSRFSGSGSGTDFTLTISSVQPEDFATYYCQHNRELPPTFGQGTKLEIK
1.81	0.00018	99200	3F9-7 (antibody, human IgG1, V domains shown, also called mAb 3F9-7) VH: EVQLLESGGGLVQPGGSLRLSCAASGFTFSSYAMSWVRQAPGKGLEWVATISEYGGSYTYYAESVKGRFTISRDNSKNTLYLQMNSLRAEDTAVYYCARPPYDDYYGGFAYWGQGTLVTVSS VL: DIQLTQSPSSLSASVGDRVTITCRASKSVSSGGYSYMHWYQQKPGKAPKLLIYLASNLESGVPSRFSGSGSGTDFTLTISSVQPEDFATYYCQHNRELPATFGQGTKLEIK
1.65	0.000192	116000	3F9-6 (antibody, human IgG1, V domains shown, also called mAb 3F9-6) VH: EVQLLESGGGLVQPGGSLRLSCAASGFTFSSYAMSWVRQAPGKGLEWVATISEYGGSYTYYAESVKGRFTISRDNSKNTLYLQMNSLRAEDTAVYYCARPPYDDYYGGFAYWGQGTLVTVSS VL: DIQLTQSPSSLSASVGDRVTITCRASKSVSSGGYSYMHWYQQKPGKAPKLLIYLASNLESGVPSRFSGSGSGTDFTLTISSVQPEDFATYYCQHNRELPVTFGQGTKLEIK
4.43	0.000416	93900	3F9-3 (antibody, human IgG1, V domains shown, also called mAb 3F9-3) VH: EVQLLESGGGLVQPGGSLRLSCAASGFTFSSYAMSWVRQAPGKGLEWVATISEYGGSYTYYAESVKGRFTISRDNSKNTLYLQMNSLRAEDTAVYYCARPPYDDYYGGFAYWGQGTLVTVSS VL: DIQLTQSPSSLSASVGDRVTITCRASKSVSSGGYSYMHWYQQKPGKAPKLLIYLASNLESGVPSRFSGSGSGTDFTLTISSVQPEDFATYYCQHNRELPITFGQGTKLEIK
3.6	0.000276	76600	3F9-8 (antibody, human IgG1, V domains shown, also called mAb 3F9-8) VH: EVQLLESGGGLVQPGGSLRLSCAASGFTFSSYAMSWVRQAPGKGLEWVATISEYGGSYTYYAESVKGRFTISRDNSKNTLYLQMNSLRAEDTAVYYCARPPYDDYYGGFAYWGQGTLVTVSS VL: DIQLTQSPSSLSASVGDRVTITCRASKSVSSGGYSYMHWYQQKPGKAPKLLIYLASNLESGVPSRFSGSGSGTDFTLTISSVQPEDFATYYCQHNRELPGTFGQGTKLEIK
2.95	0.000276	93600	3F9-5 (antibody, human IgG1, V domains shown, also called mAb 3F9-5) VH: EVQLLESGGGLVQPGGSLRLSCAASGFTFSSYAMSWVRQAPGKGLEWVATISEYGGSYTYYAESVKGRFTISRDNSKNTLYLQMNSLRAEDTAVYYCARPPYDDYYGGFAYWGQGTLVTVSS VL: DIQLTQSPSSLSASVGDRVTITCRASKSVSSGGYSYMHWYQQKPGKAPKLLIYLASNLESGVPSRFSGSGSGTDFTLTISSVQPEDFATYYCQHNRELPTTFGQGTKLEIK
